Results: US20250298041A1 (published 2025)

Legend:
[1] = target: plasma VWF (normal pooled human plasma) (human, UniProt P04275 764-2813); assay: cell-based or functional assay
[2] = target: T1, recombinant AIM-A1 protein (human VWF residues 1238-1493) (human, multiple O-linked sialylated core 1 glycans (produced from transfected HEK293F cells)); assay: method not given; nanobody from E. coli on AIM-A1
T1 construct: Any tags are as in that entry; also called glycosylated AIM-A1; human VWF AIM-A1 protein

[3] = target: T2, Plasma-derived VWF (pdVWF, Alphanate) (human, UniProt P04275 764-2813); assay: ELISA, plate coated with 100 nM nanobody, pdVWF titrated; apparent affinity, hyperbolic fit; apparent Kd of direct binding to pdVWF
T2 construct: Commercial multimeric VWF concentrate; also called plasma-purified VWF; full-length VWF

[4] = target: T2, Plasma-derived VWF (pdVWF, Alphanate); assay: ELISA: binding of pdVWF (0.1 µg/ml) to immobilised LBD-WT induced by a titration of the nanobody; EC50 of nanobody-induced binding of pdVWF to immobilized LBD
purified VWF = target: T3, purified VWF (UniProt P04275 764-2813, limits assumed); assay: method not stated; monomeric recombinant VHH81; purified VWF
T3 construct: It may be a recombinant fragment

[5] = target: T2, Plasma-derived VWF (pdVWF, Alphanate); assay: method not stated; monomeric recombinant VHH81; plasma-derived VWF
[6] = target: T1, recombinant AIM-A1 protein (human VWF …); assay: biolayer interferometry
[7] = target: T1, recombinant AIM-A1 protein (human VWF …); assay: apparent affinity, method not named; glycosylated AIM-A1 from HEK293F cells; glycosylated AIM-A1 from HEK293F cells; apparent affinity

Binder	EC50 of platelet aggregation in stirred human platelet rich plasma [1] [nM]	Kd [2] [nM]	Kd [3] [nM]	EC50 [4] [nM]	Kd (purified VWF) [nM]	Kd [5] [nM]	EC50 of extent of platelet aggregation as a function of nanobody concentration [1] [nM]	Kd [6] [nM]	Kd [7] [nM]
Cd1C4 (VHH, Llama nanobody produced in E. coli with a C-terminal His tag; also called 6C4) VHH: QVQLVESGGGLVQTGGSLTLSCAASGRAFSQYSVGWFRQAPGKERTFVAAINWSGTKAYYAGSVKGRSTISRDRAKTTVFLQMNSLKPEDTAVYYCATHRGLYYEGTNYSQKDEYDYWGQGTQVTVSS	~167	120	5.4	163	–	–	–	–	–
VHH81 (VHH, Monomeric recombinant VHH81 produced in bacteria; The tags are not included here; also called PMP12A2h1; mono ISVD of caplacizumab) VHH: EVQLVESGGGLVQPGGSLRLSCAASGRITSYNPMGWFRQAPGKGRELVAAISRTGGSTYYPDSVEGRFTISRDNAKRMVYLQMNSLRAEDTAVYYCAAAGVRAEDGRVRTLPSEYTFWGQGTQVTVSS	–	–	–	–	~20	~20	–	–	–
Cd1D12 (VHH, Llama nanobody produced in E. coli with a C-terminal His tag; also called 6D12) VHH: QVQLVESGGGLVQPGGSLRLSCAASGFTLDDYAIGWFRQVPGKERTFVGAINWSGTKAYYAGSVKGRSTVRRDNAKNTVYLQMNSLKPEDTAVYYCATHRGLHYGGINYSQKDEYDYWGQGTQVTVSS	~57	31	1.12	42	–	–	~100	76	~10
Cd1C11 (VHH, Llama nanobody produced in E. coli with a C-terminal His tag; also called 6C11) VHH: QVQLVESGGGLVQTGGSLRLSCAASGRTVSHYSVGWFRQAPGKERVFVGAINWSGDKAYYVGSVKGRSTIRRDNAKNTVYLQMNSLKPEDTAVYYCATRRGLYYEGTDYSRKDEYDYWGQGTQVTVSS	~100	13.5	3.68	215	–	–	~100	29	–
